According to the supplement of paper PMC9876800:

System: peptide library, one residue held at a place counted from the S/T acceptor
Assay: relative phosphorylation of the sub-library (ratio to the mean residue at this position); higher = residue favoured
How it was run: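 Purified recombinant kinases (human or orthologue constructs) were incubated in 384-well plates with biotinylated degenerate peptide sub-libraries, each fixing one residue at one position around a central Ser/Thr. Peptides were at 50 μM, with 50 μM ATP spiked with γ-32P-ATP, for 90 min under kinase-specific conditions. Spots on streptavidin membranes were phosphorimaged and quantified by densitometry. Relative sub-library phosphorylation is a ratio to the mean residue at that position.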

Chain of MAPK8, construct: aa1-384, human (P45983 1-384, looked up): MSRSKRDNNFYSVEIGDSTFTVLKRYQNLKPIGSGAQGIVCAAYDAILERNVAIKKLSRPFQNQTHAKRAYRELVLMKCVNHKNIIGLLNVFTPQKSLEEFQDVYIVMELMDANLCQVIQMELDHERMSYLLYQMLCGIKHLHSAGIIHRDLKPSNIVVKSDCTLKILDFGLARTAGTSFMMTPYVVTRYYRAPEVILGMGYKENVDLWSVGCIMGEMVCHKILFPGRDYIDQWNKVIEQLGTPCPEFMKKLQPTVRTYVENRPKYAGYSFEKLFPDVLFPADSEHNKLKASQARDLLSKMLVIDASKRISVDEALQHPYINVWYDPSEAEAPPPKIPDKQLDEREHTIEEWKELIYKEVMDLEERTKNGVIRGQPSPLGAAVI
Chain of CAMK1G, construct: aa4-312, human (Q96NX5 4-312, looked up): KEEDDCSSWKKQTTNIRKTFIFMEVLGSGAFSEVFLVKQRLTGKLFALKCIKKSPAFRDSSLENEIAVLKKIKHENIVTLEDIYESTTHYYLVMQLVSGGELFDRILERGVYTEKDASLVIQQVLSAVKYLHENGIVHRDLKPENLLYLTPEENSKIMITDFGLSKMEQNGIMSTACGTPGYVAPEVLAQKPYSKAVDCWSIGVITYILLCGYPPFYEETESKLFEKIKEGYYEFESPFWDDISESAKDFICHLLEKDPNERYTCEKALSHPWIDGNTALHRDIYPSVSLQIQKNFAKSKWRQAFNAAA
Chain of MAPK14, construct: Full length, human (Q16539 whole entry, looked up): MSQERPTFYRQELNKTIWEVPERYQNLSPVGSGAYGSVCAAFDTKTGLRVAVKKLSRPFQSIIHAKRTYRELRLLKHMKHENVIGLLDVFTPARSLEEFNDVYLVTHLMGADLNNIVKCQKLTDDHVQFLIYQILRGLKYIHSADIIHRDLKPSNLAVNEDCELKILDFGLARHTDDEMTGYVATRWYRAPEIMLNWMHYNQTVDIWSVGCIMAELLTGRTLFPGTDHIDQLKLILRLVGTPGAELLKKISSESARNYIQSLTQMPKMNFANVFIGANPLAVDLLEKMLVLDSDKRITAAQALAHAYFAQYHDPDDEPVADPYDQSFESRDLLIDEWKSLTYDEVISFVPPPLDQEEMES
Chain of TRPM6, construct: aa1699-end, human (Q9BX84 1699-2022, looked up): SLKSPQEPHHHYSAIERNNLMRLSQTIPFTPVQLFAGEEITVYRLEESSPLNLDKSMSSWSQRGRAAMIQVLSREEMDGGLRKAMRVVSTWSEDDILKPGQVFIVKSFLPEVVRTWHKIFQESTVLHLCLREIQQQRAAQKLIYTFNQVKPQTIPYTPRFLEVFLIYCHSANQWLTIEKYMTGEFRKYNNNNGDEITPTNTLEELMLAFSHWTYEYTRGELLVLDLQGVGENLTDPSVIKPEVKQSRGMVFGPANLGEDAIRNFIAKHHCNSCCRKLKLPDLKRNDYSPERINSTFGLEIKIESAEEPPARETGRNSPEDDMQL

MAPK14, construct: Full length, human (from UniProt Q16539)
relative phosphorylation
Details	at +1	at +2	at +3	at +4	at -1	at -2	at -3	at -4	at -5
A fixed	1.53	1.11	1.23	0.76	1.11	1.26	1.35	1.05	0.942
D fixed	0.147	0.674	0.665	0.783	0.616	0.425	0.833	0.947	0.761
E fixed	0.135	0.652	0.727	0.67	0.84	0.319	1.22	0.981	0.935
F fixed	0.403	0.864	1	1.47	0.795	0.59	0.769	1.01	0.997
G fixed	1.24	1.3	1.17	1.05	1.35	0.91	1.67	1.16	1.18
H fixed	0.346	1.11	0.846	0.89	1.06	0.499	1.01	0.859	1
I fixed	0.337	1.29	1.53	0.996	0.649	0.93	0.957	1.16	1.12
K fixed	0.34	1.33	0.654	1.06	0.922	0.594	0.908	1.09	1.24
L fixed	0.412	1.12	0.877	1.07	1.39	1.43	0.87	1.21	1.16
M fixed	0.408	0.967	0.926	1.11	1.55	1.14	1.07	1.15	1.05
N fixed	0.344	0.797	0.611	0.716	0.809	0.548	0.887	0.837	0.785
P fixed	9.61	0.697	1.64	0.88	1.14	4.82	1.27	1.03	1.27
Q fixed	0.277	0.903	0.673	0.895	1.1	0.686	0.892	0.898	0.871
R fixed	0.424	1.44	0.926	1.21	1.42	0.752	1.11	0.959	1.03
V fixed	0.366	1.09	1.43	0.801	0.755	1.09	0.727	0.767	0.757
W fixed	0.37	0.751	1.1	1.42	0.637	0.507	0.64	0.945	0.746
Y fixed	0.31	0.914	0.998	1.21	0.866	0.492	0.807	0.934	1.16
pThr fixed	0.432	1.1	0.892	0.516	0.341	0.619	1.02	0.89	0.939
pTyr fixed	0.397	0.625	1.16	0.674	0.632	0.435	0.834	0.943	1.33

TRPM6, construct: aa1699-end, human (from UniProt Q9BX84)
relative phosphorylation
Details	at +1	at +2	at +3	at +4	at -1	at -2	at -3	at -4	at -5
A fixed	0.996	1.48	2.44	0.962	0.767	0.976	0.898	1.12	1.29
D fixed	0.396	0.307	0.4	0.983	0.669	0.615	0.898	1	1.12
E fixed	0.732	0.319	0.381	0.993	0.577	0.678	0.928	1.11	1.22
F fixed	0.824	1.31	0.776	0.816	0.504	1.03	0.829	0.991	1.02
G fixed	0.509	0.788	1.09	1.33	0.421	1.36	1.06	1.35	1.43
H fixed	1.08	0.995	0.992	1.01	1.24	0.768	1.08	0.911	1.11
I fixed	1.19	0.651	0.394	0.755	0.46	0.519	0.825	0.819	0.69
K fixed	2.27	0.855	2.27	1.27	4.26	0.678	1.18	0.887	1.12
L fixed	0.909	0.92	0.633	0.705	0.673	0.772	0.928	0.81	0.696
M fixed	0.816	1.38	0.708	0.88	0.576	1.17	0.838	0.914	0.767
N fixed	0.685	0.66	1.04	0.945	1.08	0.731	1.34	0.931	1
P fixed	0.376	2.29	0.963	1.3	0.964	1.74	1.5	1.35	0.904
Q fixed	1.36	0.956	0.827	1.27	0.892	0.773	1.14	1.08	1.07
R fixed	1.96	0.942	1.83	1.02	2.16	0.609	0.963	0.901	0.928
V fixed	0.903	0.562	0.539	0.805	0.51	0.609	0.737	0.789	0.747
W fixed	0.873	1.28	0.679	1.01	0.464	3.23	1.09	1.16	0.996
Y fixed	1.12	1.3	1.04	0.948	0.78	0.746	0.774	0.875	0.884
pThr fixed	0.646	0.552	0.592	1.04	0.7	0.837	1.1	1.2	1.21
pTyr fixed	1.15	0.701	0.772	0.915	0.729	0.729	0.959	1.02	0.79

CAMK1G, construct: aa4-312, human (from UniProt Q96NX5)
relative phosphorylation
Details	at +1	at +2	at +3	at +4	at -1	at -2	at -3	at -4	at -5
A fixed	0.642	0.76	0.621	0.551	0.799	0.862	0.549	0.716	0.628
D fixed	0.415	0.664	0.754	0.687	0.868	0.426	0.285	0.428	0.451
E fixed	0.379	0.584	0.709	0.651	0.562	0.421	0.274	0.548	0.424
F fixed	2.19	0.959	1.5	1.69	0.634	0.743	0.545	0.916	1.01
G fixed	0.693	0.541	0.763	0.665	0.98	0.927	0.395	0.754	0.628
H fixed	0.691	1.37	1.2	0.846	0.991	0.867	0.602	1.08	0.879
I fixed	0.442	1.1	0.904	1.09	0.554	0.413	0.413	0.913	1.26
K fixed	2.37	1.51	1.22	1.02	2.43	1.64	1.95	2.49	1.38
L fixed	0.51	1.09	1.08	1.99	0.684	0.554	0.506	0.979	2.03
M fixed	0.931	0.968	1.01	1.43	0.723	1.02	0.68	0.936	1.29
N fixed	0.894	1.18	1.41	0.972	1.71	1.03	0.48	0.833	0.656
P fixed	0.305	0.403	0.435	0.747	1.17	0.386	0.343	0.496	0.933
Q fixed	1.27	0.908	0.969	0.986	1.05	2.24	0.777	0.936	0.84
R fixed	3.15	1.78	1.53	1.1	1.97	3.14	7.64	2.06	2.08
V fixed	0.463	0.892	0.642	0.67	0.675	0.483	0.366	0.754	0.818
W fixed	0.896	1.08	1.28	1.05	0.575	1.13	0.617	1.17	0.692
Y fixed	0.756	1.22	0.981	0.856	0.63	0.712	0.581	0.991	0.982
pThr fixed	0.933	1.57	0.938	1.1	0.856	0.667	0.447	0.759	0.579
pTyr fixed	0.717	4.89	1.31	0.992	0.749	0.652	0.486	0.704	0.774

MAPK8, construct: aa1-384, human (from UniProt P45983)
relative phosphorylation
Details	at +1	at +2	at +3	at +4	at -1	at -2	at -3	at -4	at -5
A fixed	0.237	0.912	1.46	1.17	1.03	2.05	1.17	1.13	1.18
D fixed	0.295	1.06	1.86	1.25	0.995	0.9	1.65	1.61	1.42
E fixed	0.222	0.814	1.86	1.34	0.888	0.556	1.5	1.41	1.06
F fixed	0.309	0.673	0.845	0.778	0.6	0.456	0.663	0.858	0.94
G fixed	0.676	1.22	1.49	1.07	1.31	0.724	1.1	1.03	1.06
H fixed	0.21	0.841	1.02	1.05	0.938	0.446	0.937	1.07	1.07
I fixed	0.247	1.67	0.698	1.11	0.674	1.41	0.797	0.728	0.763
K fixed	0.195	0.501	0.528	0.698	0.95	0.348	0.571	0.75	0.791
L fixed	0.322	1.45	0.881	1.02	1.45	2.55	0.898	0.753	0.685
M fixed	0.25	2	0.922	1	1.43	1.3	0.984	0.962	0.744
N fixed	0.191	0.793	0.84	0.819	0.861	0.469	1.06	0.846	0.826
P fixed	12.8	0.568	0.629	1.57	1.52	2.46	1.33	1.25	1.39
Q fixed	0.193	0.851	0.826	0.913	1.37	0.665	1.01	1.08	1.21
R fixed	0.18	0.575	0.619	0.547	0.886	0.484	0.879	0.778	0.974
V fixed	0.254	1.87	0.809	0.909	0.844	1.48	0.91	0.891	0.849
W fixed	0.196	0.53	0.878	0.937	0.582	0.338	0.727	0.993	0.858
Y fixed	0.213	0.663	0.837	0.81	0.671	0.381	0.808	0.865	1.19
pThr fixed	0.612	2.32	1.64	1.91	0.582	1.28	1.14	1.37	1.34
pTyr fixed	0.866	1.99	8.3	3.22	1.84	1.25	1.58	2.57	1.93
